Data from PMC2956116 (Structure (London, England : 1993), 2010).

Molecular target: the molecule itself
Assay: cryo-EM structure

B1: Staphylococcus aureus pyruvate carboxylase (enzyme, S. aureus, UniProt A0A0H3JRU9 1-1150, looked up)
chain: MKQIKKLLVANRGEIAIRIFRAAAELDISTVAIYSNEDKSSLHRYKADESYLVGSDLGPAESYLNIERIIDVAKQANVDAIHPGYGFLSENEQFARRCAEEGIKFIGPHLEHLDMFGDKVKARTTAIKADLPVIPGTDGPIKSYELAKEFAEEAGFPLMIKATSGGGGKGMRIVREESELEDAFHRAKSEAEKSFGNSEVYIERYIDNPKHIEVQVIGDEHGNIVHLFERDCSVQRRHQKVVEVAPSVGLSPTLRQRICDAAIQLMENIKYVNAGTVEFLVSGDEFFFIEVNPRVQVEHTITEMVTGIDIVKTQILVAAGADLFGEEINMPQQKDITTLGYAIQCRITTEDPLNDFMPDTGTIIAYRSSGGFGVRLDAGDGFQGAEISPYYDSLLVKLSTHAISFKQAEEKMVRSLREMRIRGVKTNIPFLINVMKNKKFTSGDYTTKFIEETPELFDIQPSLDRGTKTLEYIGNVTINGFPNVEKRPKPDYELASIPTVSSSKIASFSGTKQLLDEVGPKGVAEWVKKQDDVLLTDTTFRDAHQSLLATRVRTKDMINIASKTADVFKDGFSLEMWGGATFDVAYNFLKENPWERLERLRKAIPNVLFQMLLRASNAVGYKNYPDNVIHKFVQESAKAGIDVFRIFDSLNWVDQMKVANEAVQEAGKISEGTICYTGDILNPERSNIYTLEYYVKLAKELEREGFHILAIKDMAGLLKPKAAYELIGELKSAVDLPIHLHTHDTSGNGLLTYKQAIDAGVDIIDTAVASMSGLTSQPSANSLYYALNGFPRHLRTDIEGMESLSHYWSTVRTYYSDFESDIKSPNTEIYQHEMPGGQYSNLSQQAKSLGLGERFDEVKDMYRRVNFLFGDIVKVTPSSKVVGDMALYMVQNDLDEQSVITDGYKLDFPESVVSFFKGEIGQPVNGFNKDLQAVILKGQEALTARPGEYLEPVDFEKVRELLEEEQQGPVTEQDIISYVLYPKVYEQYIQTRNQYGNLSLLDTPTFFFGMRNGETVEIEIDKGKRLIIKLETISEPDENGNRTIYYAMNGQARRIYIKDENVHTNANVKPKADKSNPSHIGAQMPGSVTEVKVSVGETVKANQPLLITEAMKMETTIQAPFDGVIKQVTVNNGDTIATGDLLIEIEKATD
modifications: biotinylated Lys1144
  stoichiometry N: 4
